Measured values reported in the supplement of paper PMC7125110.
This sample holds only a part of the variants without activity.

B1: glmS ribozyme (parent)
chain: AUAAAAGCGCCAGAACUACAGAAAUGUAGUUGACGAGGAGGAGGUUUAUCGAAUUUUCGGCGGAUGCCUCCAAA

Variants of: B1
Assay: self-cleavage kobs at 2500 uM GlcN6P; higher = faster cleavage; RNA array
Details: with glucosamine-6-phosphate
Outline: (§1)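 Barcoded ribozyme variants were transcribed in situ on sequenced MiSeq chips by E. coli RNA polymerase. At 37 °C, a hybridised Cy3 probe tracked them while glucosamine-6-phosphate (40 μM to 10 mM) in HEPES/KCl/Mg(OAc)2 buffer flowed in and tiles were imaged over ~14 h. Per-tile medians of signals normalised to baseline and to non-cleaving reference variants were fit to one- or two-exponential decays, giving kobs. kcat and KM came from weighted Michaelis–Menten fits across concentrations.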

self-cleavage kobs at 2500 uM GlcN6P, < 1e-05 s⁻¹:
G7U A12G U69A
C8G A12G U54G A64C U65A C71G
C8A A14G A64U
C8G C16G U56A
C8G A12U A39U
C8G A15G U31A G40C G63C
C8G A14G G44C U54A C71U
C8G A64U C70U
G9U C16G G29C A52U G59U
C8A C11U C70U
C8G G9U A14U A15U A64G C70U
G7U G9U U47A
G7U G13A G38U A52C A53C
C8G A12U C16U G43U
C8G C11A G43A
C8G A12C A42U C68U
G7U U55C C71A
C8G G59C A64G
G7U G44U A53U
C8G A52G G59A
G7U G9U U31C U56C
G7C G29A A36U C71A
G7U C11U A12U G38C G43U U54A
C8G A33G A42G U55G
G7C U31C U46C G66U
G7U A14C C16A
G9C A39G C50U C71A
C8A A39C G59U A64C
G7U G43A U47A U57C A64U
C8A A12C C68U
G7C G9C C61G G62U
C8A G38A G63U C68U
G9A A36U A53G
G7A C34U A36C
C8A C10U A39G U57C
C8A C10U G32A A48G
C8U C10A A39C
C8G C10U C11U G13A C34G
C8U C11U A12U A36C A39G
C8A G29U C68G
G7U U31C A36U A39C A42G G59U G66U
G9A C10U U30A G44A
G7U C11U G13C A36U U56A
G9C A15U G66C C70G
G7U G43C A53U A64G
C8G A33C C34U U46G U65C
C8U G29C G60U
G9U C16A A42C U54A A64G C70U
G7C C50U A64C C68A
G9U C11U A33G G40U U69G
C8U C61A C68U
G7C A52U U54G C61U
C8G A39C C58U
G9U A14G U45A C67A
C8U C58G C70U
G9A U56G G60A
C8A C34G G66C
G7C C16U G29U C61U
C8G C58G
C8U G32C C70U
G7A C67A U69A
G7U A14C U56C
C8G G29C G38C U57C
C8G C58U C61U G63U C68U
C8U U55G U65G
C8U U55G C61U C68A
G7U C16U U46G
G7U G59A C61U
G7U C8U G32U C50U
C8U A14G C50U C71G
G7C G9U G59U
C8A G32U G37U
C8G U69G
G7C C11G G37U C58U
G7U A33C G59U G60U
G9U A39G G44C C67G
C8U A33G A64U
C8A C50U A64U
C8U G32U C34U C58G
C8A G9U A15C U31A G32A C70A

Variants of: B1
Assay: self-cleavage kobs at 10000 uM GlcN6P; higher = faster cleavage; RNA array
Details: with glucosamine-6-phosphate
Outline: as §1

self-cleavage kobs at 10000 uM GlcN6P, < 1e-05 s⁻¹:
G9U C16G G29C A52U G59U
G7U G13A G38U A52C A53C
C8G C10U C11U G13A C34G
C8U C11U A12U A36C A39G
C8A G29U C68G
G9U C11U A33G G40U U69G
C8U U55G U65G
G7C C11G G37U C58U
